Test results published in US20250099634A1, “METHOD OF TREATING CANCER” (Novartis AG, priority 2023, published 2025).

How the values were obtained:
[1] = NETTER-2 serious adverse events in the randomized treatment period (Safety Set)
Text: All adverse events (AEs), whether or not spontaneously reported by the patient, will be recorded starting from the signing of the ICF until the end of the Treatment Phase. Safety summaries (tables, figures) include only data from the on-treatment period with the exception of baseline data which will also be summarized where appropriate (e.g. change from baseline summaries). In addition, a separate summary for death including on treatment and post treatment deaths will be provided. In particular, summary tables for adverse events (AEs) will summarize only on-treatment events, with a start date during the on-treatment period (treatment-emergent AEs).
Separate summaries will be provided for study medication related adverse events, death, serious adverse events, other significant adverse events leading to discontinuation and adverse events leading to dose adjustment.

[2] = NETTER-2 worst post-baseline biochemistry abnormalities based on CTC grades (Safety Set); format: in vivo, human
Text: The laboratory assessments require that blood samples for hematology and blood chemistry, and a urine sample for urinalysis are taken. Laboratory assessments will be performed at the investigational site.
Blood tests performed 4 weeks after any treatment cannot serve as baseline values for the next treatment.
All laboratory data will be listed by treatment group, subject, and visit/time and if normal ranges are available abnormalities will be flagged. Summary statistics will be provided by treatment and visit/time. Shift tables using the low/normal/high/(low and high) classification will be used to compare baseline to the worst on-treatment value.
Grading of laboratory values will be assigned programmatically as per NCI Common Terminology Criteria for Adverse Events (CTCAE) version 5.0 or current version. The calculation of CTCAE grades will be based on the observed laboratory values only, clinical assessments will not be taken into account.
The following summaries will be generated separately for hematology, and biochemistry tests: • 1. Listing of all laboratory data with values flagged to show the corresponding CTCAE grades if applicable and the classifications relative to the laboratory normal ranges • 2. For laboratory tests where grades are defined by CTCAE, • 3. Worst post-baseline CTCAE grade (regardless of the baseline status). Each subject will be counted only once for the worst grade observed post-baseline. • 4. Shift tables using CTCAE grades to compare baseline to the worst on-treatment value • 5. For laboratory tests where grades are not defined by CTCAE, • 6. Shift tables using the low/normal/high/(low and high) classification to compare baseline to the worst on-treatment value.

[3] = All grades, randomized treatment period, Safety Set
[4] = Grade >=3, randomized treatment period, Safety Set
[5] = randomized treatment period, Safety Set
[6] = All grades (CTCAE v5.0), randomized treatment period, Safety Set

For `C[C@@H](O)[C@H](NC(=O)[C@@H]1CSSC[C@H](NC(=O)[C@@H](Cc2ccccc2)NC(=O)CN2CCN(CC(=O)[O-])CCN(CC(=O)[O-])CCN(CC(=O)[O-])CC2)C(=O)N[C@@H](Cc2ccc(O)cc2)C(=O)N[C@H](Cc2c[nH]c3ccccc23)C(=O)N[C@@H](CCCCN)C(=O)N[C@@H]([C@@H](C)O)C(=O)N1)C(=O)O.[177Lu+3]` [Lutathera, ^177Lu-DOTA^0-Tyr^3-Octreotate], the “Fatal SAEs” value [1, 3] was 3 (2.0) n (%), the “Fatal SAEs Related to Amino Acids” value [1, 3] was 0 n (%) and the “Fatal SAEs Related to Any Treatment” value [1, 3] was 0 n (%). The “Fatal SAEs Related to Lutathera” value [1, 3] was 0 n (%), the “Fatal SAEs Related to Octreotide” value [1, 3] was 0 n (%) and the SAEs [1, 3] was 30 (20.4) n (%). The “SAEs Related to Amino Acids” value [1, 3] was 0 n (%), the “SAEs Related to Any Treatment” value [1, 3] was 8 (5.4) n (%) and the “SAEs Related to Lutathera” value [1, 3] was 8 (5.4) n (%). The “SAEs Related to Octreotide” value [1, 3] was 0 n (%), the “Serious adverse event: Abdominal pain” value [1, 3] was 2 (1.4) n (%) and the “Serious adverse event: Abdominal sepsis” value [1, 3] was 0 n (%). The “Serious adverse event: Acute coronary syndrome” value [1, 3] was 0 n (%), the “Serious adverse event: Acute kidney injury” value [1, 3] was 0 n (%) and the “Serious adverse event: Anaemia” value [1, 3] was 2 (1.4) n (%). The “Serious adverse event: Ascites” value [1, 3] was 1 (0.7) n (%), the “Serious adverse event: Blood bilirubin increased” value [1, 3] was 2 (1.4) n (%) and the “Serious adverse event: Carcinoid heart disease” value [1, 3] was 0 n (%). For the same molecule, the “Serious adverse event: Carcinoid syndrome” value [1, 3] was 0 n (%), the “Serious adverse event: Diarrhoea” value [1, 3] was 1 (0.7) n (%) and the “Serious adverse event: Femur fracture” value [1, 3] was 0 n (%). For the same molecule, the “Serious adverse event: Gastroenteritis” value [1, 3] was 0 n (%), the “Serious adverse event: Gastrointestinal stoma complication” value [1, 3] was 2 (1.4) n (%) and the “Serious adverse event: Generalised oedema” value [1, 3] was 0 n (%). For the same molecule, the “Serious adverse event: Hip fracture” value [1, 3] was 0 n (%), the “Serious adverse event: Hyperglycaemia” value [1, 3] was 0 n (%) and the “Serious adverse event: Hypertension” value [1, 3] was 0 n (%). For the same molecule, the “Serious adverse event: Hypoalbuminaemia” value [1, 3] was 0 n (%), the “Serious adverse event: Intestinal obstruction” value [1, 3] was 1 (0.7) n (%) and the “Serious adverse event: Jaundice” value [1, 3] was 0 n (%). The “Serious adverse event: Lower gastrointestinal haemorrhage” value [1, 3] was 0 n (%), the “Serious adverse event: Metabolic encephalopathy” value [1, 3] was 0 n (%) and the “Serious adverse event: Oedema peripheral” value [1, 3] was 1 (0.7) n (%). The “Serious adverse event: Pleurisy” value [1, 3] was 0 n (%), the “Serious adverse event: Pyrexia” value [1, 3] was 2 (1.4) n (%) and the “Serious adverse event: Small intestinal obstruction” value [1, 3] was 5 (3.4) n (%). The “Serious adverse event: Tumour lysis syndrome” value [1, 3] was 0 n (%), the “Serious adverse events: Number of subjects with at least one event” value [1, 3] was 30 (20.4) n (%) and the “Fatal SAEs” value [1, 4] was 3 (2.0) n (%). The “Fatal SAEs Related to Amino Acids” value [1, 4] was 0 n (%), the “Fatal SAEs Related to Any Treatment” value [1, 4] was 0 n (%) and the “Fatal SAEs Related to Lutathera” value [1, 4] was 0 n (%). The “Fatal SAEs Related to Octreotide” value [1, 4] was 0 n (%), the SAEs [1, 4] was 24 (16.3) n (%) and the “SAEs Related to Amino Acids” value [1, 4] was 0 n (%). For the same molecule, the “SAEs Related to Any Treatment” value [1, 4] was 6 (4.1) n (%), the “SAEs Related to Lutathera” value [1, 4] was 6 (4.1) n (%) and the “SAEs Related to Octreotide” value [1, 4] was 0 n (%). For the same molecule, the “Serious adverse event: Abdominal pain” value [1, 4] was 2 (1.4) n (%), the “Serious adverse event: Abdominal sepsis” value [1, 4] was 0 n (%) and the “Serious adverse event: Acute coronary syndrome” value [1, 4] was 0 n (%). The “Serious adverse event: Acute kidney injury” value [1, 4] was 0 n (%), the “Serious adverse event: Anaemia” value [1, 4] was 1 (0.7) n (%) and the “Serious adverse event: Ascites” value [1, 4] was 0 n (%). The “Serious adverse event: Blood bilirubin increased” value [1, 4] was 1 (0.7) n (%), the “Serious adverse event: Carcinoid heart disease” value [1, 4] was 0 n (%) and the “Serious adverse event: Carcinoid syndrome” value [1, 4] was 0 n (%). For the same molecule, the “Serious adverse event: Diarrhoea” value [1, 4] was 0 n (%), the “Serious adverse event: Femur fracture” value [1, 4] was 0 n (%) and the “Serious adverse event: Gastroenteritis” value [1, 4] was 0 n (%). For the same molecule, the “Serious adverse event: Generalised oedema” value [1, 4] was 0 n (%), the “Serious adverse event: Hip fracture” value [1, 4] was 0 n (%) and the “Serious adverse event: Hyperglycaemia” value [1, 4] was 0 n (%). For the same molecule, the “Serious adverse event: Hypertension” value [1, 4] was 0 n (%), the “Serious adverse event: Hypoalbuminaemia” value [1, 4] was 0 n (%) and the “Serious adverse event: Intestinal obstruction” value [1, 4] was 0 n (%). The “Serious adverse event: Jaundice” value [1, 4] was 0 n (%), the “Serious adverse event: Lower gastrointestinal haemorrhage” value [1, 4] was 0 n (%) and the “Serious adverse event: Metabolic encephalopathy” value [1, 4] was 0 n (%). The “Serious adverse event: Oedema peripheral” value [1, 4] was 0 n (%), the “Serious adverse event: Pleurisy” value [1, 4] was 0 n (%) and the “Serious adverse event: Pyrexia” value [1, 4] was 1 (0.7) n (%). The “Serious adverse event: Tumour lysis syndrome” value [1, 4] was 0 n (%), the “Serious adverse events: Number of subjects with at least one event” value [1, 4] was 24 (16.3) n (%) and the “Incidence of SAEs: Small intestinal obstruction” value ([1]; most frequent SAE, summary table) was 5 (3.4) (%). For the same molecule, the “Serious AEs” value ([1]; randomized treatment period) was 20.4%, the “Serious AEs, Treatment-related” value ([1]; randomized treatment period) was 5.4% and the “SAE with fatal outcome: Blood bilirubin increased” value [1, 5] was 1 (0.7) n (%). For the same molecule, the “SAE with fatal outcome: Diarrhoea” value [1, 5] was 0 n (%), the “SAE with fatal outcome: Dyspnoea” value [1, 5] was 1 (0.7) n (%) and the “SAE with fatal outcome: Intestinal perforation” value [1, 5] was 1 (0.7) n (%). The “SAE with fatal outcome: Tumor Lysis syndrome” value [1, 5] was 0 n (%), the “SAEs with fatal outcome” value [1, 5] was 3 (2.0) n (%) and the “SAEs with fatal outcome reported in subjects with primary reason for death = Disease under Study” value [1, 5] was 3 (2.0) n (%). For the same molecule, the “Worst post-baseline abnormality: Bilirubin (umol/L)-Increase” value [2, 6] was 26 (17.7) n (%), the “Worst post-baseline abnormality: Creatinine (umol/L)-Increase” value [2, 6] was 30 (20.4) n (%) and the “Worst post-baseline abnormality: Sodium (mmol/L)-Decrease” value [2, 6] was 32 (21.8) n (%). For the same molecule, the “Worst post-baseline abnormality: Gamma Glutamyl Transferase (U/L)-Increase” value ([2]; Grade 3/4 (CTCAE v5.0), randomized treatment period, Safety Set) was 38 (25.9) n (%), the “Grade 3/4 biochemical lab abnormality: aspartate aminotransferase increase” value ([2]; in vivo) was 2.7% and the “Grade 3/4 biochemical lab abnormality: bilirubin increase” value ([2]; in vivo) was 2.7%. The “Worst post-baseline abnormality: Alanine Aminotransferase (U/L)-Increase” value ([2]; in vivo) was 6 (4.1) n (%), the “Worst post-baseline abnormality: Bilirubin (umol/L)-Increase” value ([2]; in vivo) was 4 (2.7) n (%) and the “Worst post-baseline abnormality: Creatinine (umol/L)-Increase” value ([2]; in vivo) was 0 n (%). For the same molecule, the “Worst post-baseline abnormality: Gamma Glutamyl Transferase (U/L)-Increase” value ([2]; in vivo) was 102 (69.4) n (%), the “Worst post-baseline abnormality: Sodium (mmol/L)-Decrease” value ([2]; in vivo) was 1 (0.7) n (%) and the “Grade 3/4 biochemical lab abnormality: GGT increase” value ([2]; randomized treatment period) was 25.9%.
